Data reported in article PMC4572887, “GnT1IP-L specifically inhibits MGAT1 in the Golgi via its luminal domain” (eLife, 2015).

What was measured:
[1] = target: the molecule itself; assay: FRET or BRET; COS-7 cells stably expressing GnT1IP-L-mVen, co-transfected with GnT1IP-L-mChe and MGAT1-HA as competitor, with or without 40 µM chloroquine for 4 or 16 hr; FRET efficiency by acceptor bleaching
human MGAT1-mChe = target: T1, human MGAT1-mChe (human, UniProt P26572 1-445); assay: FRET or BRET; acceptor-bleaching FRET microscopy on fixed cells, mVen donor and mChe acceptor; COS-7 cells stably expressing GnT1IP-L-mVen, transiently transfected with the mChe-tagged partner; untreated controls, recovery 4 hr after removal of nocodazole, and 40 µM chloroquine for 4 or 16 hr; conditions: partners not purified
T1 construct: N-acetylglucosaminyltransferase MGAT1, human, full-length cDNA clone; also called GlcNAc-TI; GnT-1; source: COS-7 or Lec1 CHO cells, transiently transfected; in cells; not shown: monomeric mCherry (mChe), C-terminal, kept
T1 sequence (looked up): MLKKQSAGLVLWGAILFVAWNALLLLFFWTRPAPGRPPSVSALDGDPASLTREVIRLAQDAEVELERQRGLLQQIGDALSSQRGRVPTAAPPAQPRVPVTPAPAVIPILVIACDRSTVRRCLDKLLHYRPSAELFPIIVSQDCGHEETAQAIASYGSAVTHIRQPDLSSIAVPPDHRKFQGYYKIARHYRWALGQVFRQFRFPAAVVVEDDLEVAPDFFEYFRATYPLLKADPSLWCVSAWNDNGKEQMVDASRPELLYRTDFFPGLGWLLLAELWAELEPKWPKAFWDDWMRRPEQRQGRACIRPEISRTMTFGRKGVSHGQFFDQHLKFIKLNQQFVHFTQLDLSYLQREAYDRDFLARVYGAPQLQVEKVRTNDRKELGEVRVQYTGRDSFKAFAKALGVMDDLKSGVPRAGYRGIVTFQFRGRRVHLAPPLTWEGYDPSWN

[2] = target: the molecule itself; assay: as above

- FRET efficiency (untreated control) (human MGAT1-mChe): 38%
B1: Mouse GnT1IP-L-mVen (natural protein, UniProt Q9D4R2-2 1-417, looked up)
chain: MCLGESVGDLRTVATAPWEGEQARGVKDAGSVPVQPGVGSDAATMKAKNVNLLFAFVAVLLFGFSCFCISRMNQTNNQLINCRNHVLEFKEIMLRLKNKSENHHQDLMQVLYQMKRKAAHTTRSSGNFLEKKGSILSQHETLPNQFEVLKYFLPHLRTAGKLYPAIATSKGRAGVSFALGISTINRGNHTYLKQTLTSVLSRMTPEEEEDSVVIVSVADTDESYLKSVVRMVKTKFRKQVQSGVLEVISIPTLFYPQTLLDKKTKTDSESWQIKQVLDFCILMLYAQPKATYYLQLEDDIVAKKMYFTKMKDFVNSLTSKNWFFIEFSVLGFIGKLFRSKDLTDFVHFFLMFYETKPIDILLDDIFLIRVCISGEPVRSCLQRKKGFRIQYRPSLFQHVGTQSSFPGREQHLKDNYY
notes: GnT1IP-L, mouse, the long form of 417 aa (GnT1IP-S with 44 additional N-terminal amino acids), GenBank HM067443; In the homomer FRET experiments the second copy carried C-terminal monomeric mCherry (GnT1IP-L-mChe) instead of mVen; it is written as the same molecule; also called MGAT4D (long form); source: COS-7 or Lec1 CHO cells stably expressing it, or COS-7 cells transiently transfected; in …
- fold increase of homomer FRET with chloroquine, MGAT1-HA co-expressed as competitor [1]: ~2 fold
- FRET efficiency (untreated control) [2]: 32%
